Test results taken from PMC2877795, “Laminin chain assembly is regulated by specific coiled-coil interactions” (Journal of Structural Biology, 2010).

Experiments:
Conditions in all cases: both partners purified
[1] = molecular target: T1, β1γ1 complex of the recombinant mouse laminin coiled-coil fragments (mouse, UniProt P02469 1561-1786; P02468 1362-1607); assay: AUC; sedimentation equilibrium and velocity; 5 mM sodium phosphate, 150 mM NaCl, pH 7.0 (methods) or 7.4 (Table 3); 0.1-0.5 mg/ml
T1 construct: two residues (GlySer) left from the protease recognition site after thrombin cleavage; laminin β1 chain, mouse, residues 1561-1786 of the native chain; as m6; laminin γ1 chain, mouse, residues 1362-1607 of the native chain; as m9; heterodimer by AUC; in the αβγ tests all three chains were mixed, the βγ complex was not isolated beforehand; source: mixture of the purified E. coli fragments; not …
T1 sequence 1: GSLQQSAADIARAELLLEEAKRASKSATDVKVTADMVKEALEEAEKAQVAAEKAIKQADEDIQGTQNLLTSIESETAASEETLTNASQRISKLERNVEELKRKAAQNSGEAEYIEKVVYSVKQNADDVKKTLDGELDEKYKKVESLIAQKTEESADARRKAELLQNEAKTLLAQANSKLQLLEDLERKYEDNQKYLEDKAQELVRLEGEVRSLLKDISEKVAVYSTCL
T1 sequence 2: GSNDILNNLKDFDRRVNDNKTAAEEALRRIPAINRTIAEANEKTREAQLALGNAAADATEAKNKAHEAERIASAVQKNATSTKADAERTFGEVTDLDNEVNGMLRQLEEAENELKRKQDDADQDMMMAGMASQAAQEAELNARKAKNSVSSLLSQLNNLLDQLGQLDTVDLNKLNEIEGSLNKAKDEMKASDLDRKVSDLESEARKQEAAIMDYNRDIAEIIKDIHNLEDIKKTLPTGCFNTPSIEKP

[2] = molecular target: T2, β1γ2 complex of the recombinant mouse laminin coiled-coil fragments (mouse, UniProt P02469 1561-1786; Q61092 949-1191); assay: as above
T2 construct: two residues (GlySer) left from the protease recognition site after thrombin cleavage; laminin β1 chain, mouse, residues 1561-1786 of the native chain; as m6; laminin γ2 chain, mouse, residues 949-1191 of the native chain; as m10; alone a heterotetramer by AUC (most likely two β1 and two γ2 chains); one chain of each in the trimer with α3; in the αβγ tests all three chains were mixed; also called …
T2 sequence 1: T1 sequence 1
T2 sequence 2: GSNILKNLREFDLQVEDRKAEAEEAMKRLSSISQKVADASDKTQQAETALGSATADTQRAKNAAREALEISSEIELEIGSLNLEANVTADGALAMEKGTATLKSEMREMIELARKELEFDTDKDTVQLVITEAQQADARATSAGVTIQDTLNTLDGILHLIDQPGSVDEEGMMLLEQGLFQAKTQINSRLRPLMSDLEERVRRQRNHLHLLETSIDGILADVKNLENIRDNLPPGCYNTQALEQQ

[3] = molecular target: T3, β2γ1 complex of the recombinant mouse laminin coiled-coil fragments (mouse, UniProt Q61292 1575-1799; P02468 1362-1607); assay: native gel or EMSA; mixtures of one α, one β and one γ chain fragment; 10% non-denaturing PAGE (acid gels for basic complexes); mixtures reduced, heated to 70 °C for 5 min and cooled; run overnight at 50 V, room temperature, no cooling; Coomassie; bands confirmed by in-gel trypsin digestion and mass spectrometry
T3 construct: two residues (GlySer) left from the protease recognition site after thrombin cleavage; laminin β2 chain, mouse, residues 1575-1799 of the native chain; as m7; laminin γ1 chain, mouse, residues 1362-1607 of the native chain; as m9; in the αβγ tests all three chains were mixed, the βγ complex was not isolated beforehand; source: mixture of the purified E. coli fragments; not shown: 6xHis, …
T3 sequence 1: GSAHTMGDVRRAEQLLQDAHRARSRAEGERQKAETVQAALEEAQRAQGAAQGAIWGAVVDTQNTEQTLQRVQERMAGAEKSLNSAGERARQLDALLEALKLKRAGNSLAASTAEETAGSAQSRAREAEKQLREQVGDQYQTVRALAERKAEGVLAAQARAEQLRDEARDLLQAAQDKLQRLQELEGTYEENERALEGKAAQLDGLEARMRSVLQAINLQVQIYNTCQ
T3 sequence 2: T1 sequence 2

[4] = molecular target: T4, β3γ2 complex of the recombinant mouse laminin coiled-coil fragments (mouse, UniProt Q61087 945-1168; Q61092 949-1191); assay: as above
T4 construct: two residues (GlySer) left from the protease recognition site after thrombin cleavage; laminin β3 chain, mouse, residues 945-1168 of the native chain; as m8; laminin γ2 chain, mouse, residues 949-1191 of the native chain; as m10; in the αβγ tests all three chains were mixed, the βγ complex was not isolated beforehand; source: mixture of the purified E. coli fragments; not shown: 6xHis, …
T4 sequence 1: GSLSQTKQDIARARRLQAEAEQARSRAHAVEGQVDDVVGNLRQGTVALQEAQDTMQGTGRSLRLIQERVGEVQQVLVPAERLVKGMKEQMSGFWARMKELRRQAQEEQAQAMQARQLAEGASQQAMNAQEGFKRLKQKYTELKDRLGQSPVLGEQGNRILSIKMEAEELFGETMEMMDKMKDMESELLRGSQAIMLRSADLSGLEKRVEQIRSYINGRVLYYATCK
T4 sequence 2: T2 sequence 2

[5] = molecular target: T5, recombinant mouse laminin β1 chain C-terminal coiled-coil fragment (1561–1786) (mouse, UniProt P02469 1561-1786); assay: AUC; sedimentation equilibrium and velocity; 5 mM sodium phosphate, 150 mM NaCl, pH 7.0 (methods) or 7.4 (Table 3); 0.1-0.5 mg/ml
T5 construct: two residues (GlySer) left from the protease recognition site after thrombin cleavage; laminin β1 chain, mouse, C-terminal coiled-coil fragment, residues 1561-1786 of the native chain (226 residues); source: E. coli JM109(DE3), purified (Ni2+-Sepharose, denaturing, 8 M urea), 6xHis tag removed by thrombin; not shown: 6xHis, N-terminal, cleaved
T5 sequence: T1 sequence 1

[6] = molecular target: T5, recombinant mouse laminin β1 chain …; assay: as above; remark: listed apart in the source

B1: recombinant mouse laminin α3 chain C-terminal coiled-coil fragment (2176–2397) (domain or fragment)
chain: GSYENILNAIRAAEDAASKATSASKSAFQTVIKEDLPKRAKTLSSDSEELLNEAKMTQKRLQQVSPALNSLQQTLKTVSVQKDLLDANLTVARDDLHGIQRGDIDSVVIGAKSMVREANGITSEVLDGLNPIQTDLGRIKDSYESARREDFSKALVDANNSVKKLTRKLPDLFIKIESINQQLLPLGNISDNVDRIRELIQQARDAANKVAIPMRFNGKSGVEV
notes: two residues (GlySer) left from the protease recognition site after thrombin cleavage; laminin α3 chain, mouse, C-terminal coiled-coil fragment, residues 2176-2397 of the native chain (222 residues); the printed numbers fit the long (α3B) form; source: E. coli JM109(DE3), purified (Ni2+-Sepharose, denaturing, 8 M urea), 6xHis tag removed by thrombin; not shown: 6xHis, N-terminal, cleaved; pPEP-T …
[1]
  stoichiometry N: 1
[2]
  stoichiometry N: 1
[3]
  binding result: binds
[4]
  binding result: binds

B2: recombinant mouse laminin γ1 chain C-terminal coiled-coil fragment (1362–1607) (domain or fragment)
chain: T1 sequence 2
notes: two residues (GlySer) left from the protease recognition site after thrombin cleavage; laminin γ1 chain, mouse, C-terminal coiled-coil fragment, residues 1362-1607 of the native chain (246 residues); source: E. coli JM109(DE3), purified (Ni2+-Sepharose, denaturing, 8 M urea), 6xHis tag removed by thrombin; not shown: 6xHis, N-terminal, cleaved; pPEP-T leader (short C-terminal fragment of the …)
[5]
  stoichiometry N: 1

B3: recombinant mouse laminin γ2 chain C-terminal coiled-coil fragment (949–1191) (domain or fragment)
chain: T2 sequence 2
notes: two residues (GlySer) left from the protease recognition site after thrombin cleavage; laminin γ2 chain, mouse, C-terminal coiled-coil fragment, residues 949-1191 of the native chain (243 residues); source: E. coli JM109(DE3), purified (Ni2+-Sepharose, denaturing, 8 M urea), 6xHis tag removed by thrombin; not shown: 6xHis, N-terminal, cleaved; pPEP-T leader (short C-terminal fragment of the …)
[6]
  stoichiometry N: 1 γ2 per β1 (2:2)
